Experimental data taken from paper doi:10.1101/2021.03.12.434960.
One block for each binder: values may come before it.

Key:
[1] = target: T1, full-length human KIF5B, C-terminal mScarlet-StrepII (human), P33176; assay: SEC-MALS; conditions: remark: other sources report otherwise
T1 chain: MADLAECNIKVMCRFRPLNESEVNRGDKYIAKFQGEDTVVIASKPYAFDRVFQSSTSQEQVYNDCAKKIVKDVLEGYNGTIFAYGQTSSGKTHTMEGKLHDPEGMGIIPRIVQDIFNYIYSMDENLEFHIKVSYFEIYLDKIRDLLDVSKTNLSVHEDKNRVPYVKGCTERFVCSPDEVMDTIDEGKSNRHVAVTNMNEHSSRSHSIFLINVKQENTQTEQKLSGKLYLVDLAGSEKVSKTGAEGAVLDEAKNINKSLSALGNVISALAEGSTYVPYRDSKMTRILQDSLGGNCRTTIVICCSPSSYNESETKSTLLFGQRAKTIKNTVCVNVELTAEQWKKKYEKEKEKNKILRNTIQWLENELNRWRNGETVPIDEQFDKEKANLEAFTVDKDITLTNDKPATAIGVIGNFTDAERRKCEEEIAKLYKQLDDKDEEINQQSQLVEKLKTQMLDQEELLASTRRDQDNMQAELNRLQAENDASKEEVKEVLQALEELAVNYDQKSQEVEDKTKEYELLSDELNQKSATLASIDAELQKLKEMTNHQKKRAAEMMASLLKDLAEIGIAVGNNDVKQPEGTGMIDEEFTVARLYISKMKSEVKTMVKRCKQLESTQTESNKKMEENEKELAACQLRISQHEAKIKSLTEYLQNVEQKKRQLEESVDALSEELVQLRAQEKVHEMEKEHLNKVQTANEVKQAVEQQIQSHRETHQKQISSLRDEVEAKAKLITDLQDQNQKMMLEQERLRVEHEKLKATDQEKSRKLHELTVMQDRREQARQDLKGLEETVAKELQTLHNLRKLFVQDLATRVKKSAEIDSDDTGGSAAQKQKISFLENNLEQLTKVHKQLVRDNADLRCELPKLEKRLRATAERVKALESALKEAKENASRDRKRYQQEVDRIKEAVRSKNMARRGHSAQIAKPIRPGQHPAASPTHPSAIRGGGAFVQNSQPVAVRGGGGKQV

[2] = target: T2, full-length human KIF5A, C-terminal mScarlet-StrepII (human), Q12840; assay: SEC-MALS; conditions: remark: other sources report otherwise
T2 chain: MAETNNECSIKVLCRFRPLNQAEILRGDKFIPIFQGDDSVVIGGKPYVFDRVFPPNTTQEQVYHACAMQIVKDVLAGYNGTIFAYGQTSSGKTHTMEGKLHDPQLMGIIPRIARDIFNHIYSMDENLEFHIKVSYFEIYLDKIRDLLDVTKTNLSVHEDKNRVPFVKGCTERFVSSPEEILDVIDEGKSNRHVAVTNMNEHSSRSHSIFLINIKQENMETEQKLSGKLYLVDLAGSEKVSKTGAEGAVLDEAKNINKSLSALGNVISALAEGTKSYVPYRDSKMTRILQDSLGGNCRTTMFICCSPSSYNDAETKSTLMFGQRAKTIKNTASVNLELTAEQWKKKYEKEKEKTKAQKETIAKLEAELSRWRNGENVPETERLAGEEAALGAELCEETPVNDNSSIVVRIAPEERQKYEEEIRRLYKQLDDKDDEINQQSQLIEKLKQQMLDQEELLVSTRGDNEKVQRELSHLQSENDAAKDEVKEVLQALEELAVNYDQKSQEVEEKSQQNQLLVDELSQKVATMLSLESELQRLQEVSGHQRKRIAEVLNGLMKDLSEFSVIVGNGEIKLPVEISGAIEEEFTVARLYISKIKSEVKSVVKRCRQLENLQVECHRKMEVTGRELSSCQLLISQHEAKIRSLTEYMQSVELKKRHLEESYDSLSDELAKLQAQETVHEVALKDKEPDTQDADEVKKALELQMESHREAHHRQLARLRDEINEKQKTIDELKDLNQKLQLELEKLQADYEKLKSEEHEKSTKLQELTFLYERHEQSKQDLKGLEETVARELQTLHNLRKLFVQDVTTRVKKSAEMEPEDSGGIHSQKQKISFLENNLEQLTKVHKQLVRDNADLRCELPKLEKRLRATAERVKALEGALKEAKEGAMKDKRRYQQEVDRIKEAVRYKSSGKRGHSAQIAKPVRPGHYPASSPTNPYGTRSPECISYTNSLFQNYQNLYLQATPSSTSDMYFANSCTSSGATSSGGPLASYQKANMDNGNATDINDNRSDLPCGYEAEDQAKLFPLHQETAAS

stoichiometry N [1]: 2
B1: full-length human KIF5B, C-terminal mScarlet-StrepII, P33176 1-963 (natural protein)
chain: T1 chain

stoichiometry N [2]: 2
B2: full-length human KIF5A, C-terminal mScarlet-StrepII, Q12840 1-1032 (natural protein)
chain: T2 chain
